{"source": "patent US20080242590A1", "about": "“New Method 706” (ASTRAZENECA AB, priority 2007, published 2008)", "molecules": {"B1": {"name": "Fc-Neprilysin: extracellular domain of human Neprilysin fused to the human IgG2 Fc domain (including hinge), Fc at N-terminus; SEQ ID NO 11 (protein)", "chain": "ERKCCVECPPCPAPPVAGPSVFLFPPKPKDTLMISRTPEVTCVVVDVSHEDPEVQFNWYVDGVEVHNAKTKPREEQFNSTFRVVSVLTVVHQDWLNGKEYKCKVSNKGLPAPIEKTISKTKGQPREPQVYTLPPSREEMTKNQVSLTCLVKGFYPSDIAVEWESNGQPENNYKTTPPMLDSDGSFFLYSKLTVDKSRWQQGNVFSCSVMHEALHNHYTQKSLSLSPGKYDDGICKSSDCIKSAARLIQNMDATTEPCTDFFKYACGGWLKRNVIPETSSRYGNFDILRDELEVVLKDVLQEPKTEDIVAVQKAKALYRSCINESAIDSRGGEPLLKLLPDIYGWPVATENWEQKYGASWTAEKAIAQLNSKYGKKVLINLFVGTDDKNSVNHVIHIDQPRLGLPSRDYYECTGIYKEACTAYVDFMISVARLIRQEERLPIDENQLALEMNKVMELEKEIANATAKPEDRNDPMLLYNKMTLAQIQNNFSLEINGKPFSWLNFTNEIMSTVNISITNEEDVVVYAPEYLTKLKPILTKYSARDLQNLMSWRFIMDLVSSLSRTYKESRNAFRKALYGTTSETATWRRCANYVNGNMENAVGRLYVEAAFAGESKHVVEDLIAQIREVFIQTLDDLTWMDAETKKRAEEKALAIKERIGYPDDIVSNDNKLNNEYLELNYKEDEYFENIIQNLKFSQSKQLKKLREKVDKDEWISGAAVVNAFYSSGRNQIVFPAGILQPPFFSAQQSNSLNYGGIGMVIGHEITHGFDDNGRNFNKDGDLVDWWTQQSASNFKEQSQCMVYQYGNFSWDLAGGQHLNGINTLGENIADNGGLGQAYRAYQNYIKKNGEEKLLPGLDLNHKQLFFLNFAQVWCGTYRPEYAVNSIKTDVHSPGNFRIIGTLQNSAEFSEAFHCRKNSYMNPEKKCRVW"}}, "key": {"[1]": {"test": "Observations of animal health (Example 24)", "format": "in vivo, C57BL/6 mice", "conditions": "1 or 5 mg/kg single i.v., whole experiment"}, "[2]": {"test": "Plasma exposure (Example 23)", "format": "in vivo, APPSWE-transgenic mice", "conditions": "for Mean plasma exposure: 1.5 hours; for Plasma exposure: 3 hours", "description": "The Fc-Nep fusion protein was developed to improve the pharmacokinetic entities of neprilysin with the specific aims to reduce clearance and improve half-life. To test this we have administrated a single i.v. dose of either 1 mg/kg commercial neprilysin or 1 alternatively 5 mg/kg in-house produced Fc-Nep to mice. At set times after dosing blood samples were drawn from the tail vein or by heart puncture at termination. Upon sampling into tubes containing EDTA the aliquots were put on ice. Plasma was prepared by centrifugation within 15 minutes of sampling (typically 1500 g at 4° C. for 10 min) and immediately frozen. Plasma concentrations of Fc-Nep and neprilysin were determined via immunoassays using either anti-Nep for commercial neprilysin or anti-human IgG for Fc-Nep as capture antibodies while both substances were detected via an anti-Nep antibody. Pharmacokinetic parameters are calculated using a software package (WinNonlin, Pharsight Corporation, USA) and in this example experiment the calculated half-life had increased from about 5 minutes for Nep to about 20 hours for Fc-Nep.\n(§1) 25-31 weeks old female APPSWE-transgenic mice (10 mice/group) received vehicle or the Fc-Nep at 1 or 5 mg/kg as a single intravenous injections. As a reference compound, 300 μmol/kg of the γ-secretase inhibitor M-550426 was used and these animals was treated in 3 hours (4 mice). […] Blood was sampled from vehicle- and compound-treated animals at 1.5 and 3 hours after dose. Blood was withdrawn from anaesthetized mice by heart puncture into pre-chilled microtainer tubes containing EDTA. Blood samples were immediately put on ice prior to centrifugation. Plasma was prepared by centrifugation for 10 minutes at approximately 3000×g at +4° C. within 20 minutes from sampling. After blood sampling, mice were terminated. Aβ40 and Aβ42 levels in plasma were analyzed by commercial ELISA kit obtained from Biosource and Innogenetics, respectively.\nThe concentrations of Fc-Nep in plasma and in the formulations were assayed according to the procedures described in Example 20. The exposure in plasma was analysed in samples from non-treated animals (blank) and in samples from animals treated with M550426."}, "[3]": {"test_system": "soluble Aβ40", "test": "Soluble Aβ40 in plasma after acute i.v. treatment (Example 23)", "format": "in vivo, APPSWE-transgenic mice", "description": "The objective with this study was to evaluate the time and dose-response effect of Fc-Nep in plasma of female APPSWE-tg mice after acute intraveneous treatment. The specific purpose is to find an effect on plasma Aβ40 and Aβ42. The γ-secretase inhibitor M-550426 is included as a reference compound.\nas §1"}, "[4]": {"test_system": "fluorogenic peptide substrate V—Mca-Arg-Pro-Gly-Phe-Ser-Ala-Phe-Lys(Dnp)-OH", "test": "Neprilysin enzyme activity FRET assay, purified protein", "format": "biochemical", "conditions": "purified fusion protein", "description": "The Neprilysin enzymatic activity was determined in a fluorescence resonance energy transfer (FRET) assay. Recombinant Human Neprilysin (R&D Systems), culture medium from Neprilysin or Fc-Neprilysin producing cells (AZ Sodertalje) or purified Neprilysin or Fc-Neprilysin was added into 96-well plate containing 10 μM of fluorogenic peptide substrate V—Mca-Arg-Pro-Gly-Phe-Ser-Ala-Phe-Lys(Dnp)-OH (R&D Systems). The final concentration of the control recombinant human Neprilysin was 0.1 or 0.25 μg/ml. 10 μM of Neprilysin inhibitor phosphoramidone (BIOMOL) was added into some wells in order to control the specificity of the signal in the assay and verify the specific Neprilysin activity. Following addition of all components to wells, plate was immediately placed into a fluorescent plate reader (Ascent) and signal was recorded for every minute for 20 minutes at the excitation 340 nm and emission 405 nm. The activity of enzyme was evaluated by calculating the velocity of reaction−Slope coefficient=ΣΔRFU/Δt. In order to compare the specific activity of the commercial recombinant Neprilysin and Fc-Neprilysin fusion protein, we introduced the specific activity coefficient, which is calculated according to this formula: Specific activity=slope coefficient/pmol of Neprilysin or monomer of Fc-Neprilysin in assay. […]"}, "[5]": {"test_system": "Aβ 1-42", "test": "Degradation of Aβ 1-42 in APPswe-tg mouse plasma pool (Example 28)", "format": "biochemical", "conditions": "room temperature, 1 hour", "description": "Mouse plasma collected from 9 animals was stored at −70° C. Plasma was thawed and pooled just before the experiment. Aβ 1-40 and 1-42 in plasma pool was degraded by human Fc-Nep or mouse Fc-Nep with corresponding vehicles (50 mM Tris-HCl, 150 mM NaCl pH 7.5). The following final concentrations of the Fc-Nep constructs were used, 100, 32, 10, 3.2, 1, 0.3, 0.1 and […] and the degradation occurred at room temperature for 1 hour while shaking on an orbital shaker. The enzymatic reaction was stopped by adding Phosphoramidone (10 μM final concentration).\nAfter degradation, a final concentration of 4.7 mM EDTA was added to the tg-mouse plasma tubes and the plasma samples were diluted 3 times in sample diluent, before the concentration of Aβ42 was analyzed using ELISA kit Innotest® β-Amyloid1-42 (Innogenetics, lot#177462, ref#80177) according to the manufacturers instructions. The highest concentration (100 μg/ml) of human Fc-Nep and mouse Fc-Nep degraded human plasma amyloid β 1-40 by 71% and 77%, respectively and Aβ 1-42 by 34% and 53%, respectively, as compared to plasma without Fc-Nep treatment."}}}
{"molecule": "B1", "values": [{"measurement": "Observations of the animal health", "setting": "[1]", "value": "no overt adverse effects"}, {"measurement": "Mean plasma exposure", "setting": "[2]; 1 mg/kg i.v.", "value": 9.8, "unit": "µg/mL"}, {"measurement": "Plasma exposure", "setting": "[2]; 1 mg/kg i.v.", "value": 7.6, "unit": "µg/mL"}, {"measurement": "Mean plasma exposure", "setting": "[2]; 5 mg/kg i.v.", "value": 33.6, "unit": "µg/mL"}, {"measurement": "Plasma exposure", "setting": "[2]; 5 mg/kg i.v.", "value": 27.3, "unit": "µg/mL"}, {"measurement": "Change in plasma Aβ40", "setting": "[3]; 1 and 5 mg/kg i.v., 3 hours after dose", "value": "No significant changes"}, {"measurement": "Reduction of soluble Aβ40 in plasma compared to vehicle", "setting": "[3]; 1 or 5 mg/kg i.v., 1.5 hours after dose, P<0.05", "value": "approximately 20%"}, {"measurement": "Specific activity (slope coefficient/pmol)", "setting": "[4]", "value": 14.1}, {"measurement": "Degradation of Aβ 1-42 compared to plasma without treatment", "setting": "[5]; highest concentration 100 μg/ml", "value": 34, "unit": "%"}, {"measurement": "EC50", "setting": "[5]", "value": 1300, "unit": "nM"}]}
